Legend:
ULK1 = target: T1, ULK1 (human, UniProt O75385 1-1050); experiment: co-IP with anti-Flag beads and immunoblot; 293T cells transfected with the indicated Flag-tagged plasmid (FIG. 12B)
T1 construct: also called HA-ULK1
T1 sequence (looked up): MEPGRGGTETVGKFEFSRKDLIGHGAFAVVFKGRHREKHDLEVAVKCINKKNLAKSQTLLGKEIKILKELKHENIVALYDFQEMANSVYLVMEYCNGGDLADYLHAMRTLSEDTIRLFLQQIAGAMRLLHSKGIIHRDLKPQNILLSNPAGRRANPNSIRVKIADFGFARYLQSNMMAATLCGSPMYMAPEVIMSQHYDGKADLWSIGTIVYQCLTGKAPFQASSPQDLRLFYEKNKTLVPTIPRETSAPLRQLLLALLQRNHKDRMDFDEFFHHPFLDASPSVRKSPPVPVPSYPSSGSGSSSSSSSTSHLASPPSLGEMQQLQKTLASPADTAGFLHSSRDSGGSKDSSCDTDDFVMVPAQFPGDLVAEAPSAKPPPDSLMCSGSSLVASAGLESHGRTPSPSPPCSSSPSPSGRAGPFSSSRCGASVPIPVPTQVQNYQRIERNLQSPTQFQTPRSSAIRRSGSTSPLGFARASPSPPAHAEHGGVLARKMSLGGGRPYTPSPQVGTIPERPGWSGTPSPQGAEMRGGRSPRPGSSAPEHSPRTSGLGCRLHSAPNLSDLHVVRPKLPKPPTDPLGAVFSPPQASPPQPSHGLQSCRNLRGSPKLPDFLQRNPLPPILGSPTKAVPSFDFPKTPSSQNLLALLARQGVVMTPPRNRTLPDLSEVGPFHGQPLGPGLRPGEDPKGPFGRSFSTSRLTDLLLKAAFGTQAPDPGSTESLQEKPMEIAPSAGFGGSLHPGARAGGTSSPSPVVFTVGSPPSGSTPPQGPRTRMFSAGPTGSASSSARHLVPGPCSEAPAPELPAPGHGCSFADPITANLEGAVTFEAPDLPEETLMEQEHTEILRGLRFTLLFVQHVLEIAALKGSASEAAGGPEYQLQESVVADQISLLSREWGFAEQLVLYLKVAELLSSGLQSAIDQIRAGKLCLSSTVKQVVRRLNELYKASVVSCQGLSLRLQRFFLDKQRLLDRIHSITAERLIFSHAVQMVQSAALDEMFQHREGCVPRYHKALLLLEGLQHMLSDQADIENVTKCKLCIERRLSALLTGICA

[1] = target: T2, Beclin 2 (human, full length) (human, UniProt A8MW95 1-431); experiment: co-IP with anti-Flag beads and immunoblot; 293T cells co-transfected with HA-Beclin 2 and a Flag-tagged plasmid (FIG. 13C)
T2 construct: All tagged and endogenous human forms are kept under this one id; the form used is named under assay; also called BECN2; Flag-Beclin 2
T2 sequence: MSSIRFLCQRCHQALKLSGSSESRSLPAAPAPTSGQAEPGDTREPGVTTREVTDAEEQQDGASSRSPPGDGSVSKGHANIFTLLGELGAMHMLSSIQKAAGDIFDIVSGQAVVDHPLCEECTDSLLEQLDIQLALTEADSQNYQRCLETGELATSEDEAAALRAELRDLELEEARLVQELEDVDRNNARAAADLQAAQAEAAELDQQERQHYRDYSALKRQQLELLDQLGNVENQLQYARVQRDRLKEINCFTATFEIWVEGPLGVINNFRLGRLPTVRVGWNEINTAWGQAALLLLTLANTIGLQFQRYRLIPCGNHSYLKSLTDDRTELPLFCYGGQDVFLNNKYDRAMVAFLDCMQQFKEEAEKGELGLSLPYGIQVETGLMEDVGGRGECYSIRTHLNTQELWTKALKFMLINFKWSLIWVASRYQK

[2] = target: T2, Beclin 2 (human, full length); experiment: co-IP with anti-Flag beads and immunoblot; HEK293T cells co-transfected with HA-Beclin 2 and Flag-tagged SNARE or RAB proteins (FIG. 32A)
[3] = target: T3, AIM2 (human, full length) (human, UniProt O14862 1-343); experiment: co-IP with anti-Flag beads; HA-tagged Beclin 2 truncations co-transfected with Flag-AIM2 (FIG. 25K)
T3 construct: also called Flag-AIM2; GFP-AIM2
T3 sequence (looked up): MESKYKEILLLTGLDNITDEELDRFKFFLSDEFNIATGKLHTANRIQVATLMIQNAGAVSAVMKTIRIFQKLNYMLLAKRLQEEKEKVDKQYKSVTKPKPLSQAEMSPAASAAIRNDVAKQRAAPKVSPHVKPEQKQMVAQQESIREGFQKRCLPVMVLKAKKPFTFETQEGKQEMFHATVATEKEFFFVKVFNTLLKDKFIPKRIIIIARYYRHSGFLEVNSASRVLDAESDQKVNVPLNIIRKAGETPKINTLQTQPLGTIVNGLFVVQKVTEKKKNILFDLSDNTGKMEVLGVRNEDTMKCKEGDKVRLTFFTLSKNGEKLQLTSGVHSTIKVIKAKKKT

[4] = target: T4, NLRP3 (human, full length) (human, UniProt Q96P20 1-1036, limits assumed); experiment: co-IP with anti-Flag beads; HA-tagged Beclin 2 truncations co-transfected with Flag-NLRP3 (FIG. 25L)
T4 construct: also called Flag-NLRP3; HA-NLRP3
T4 sequence (Q96P20 whole entry, the tested form may be a part): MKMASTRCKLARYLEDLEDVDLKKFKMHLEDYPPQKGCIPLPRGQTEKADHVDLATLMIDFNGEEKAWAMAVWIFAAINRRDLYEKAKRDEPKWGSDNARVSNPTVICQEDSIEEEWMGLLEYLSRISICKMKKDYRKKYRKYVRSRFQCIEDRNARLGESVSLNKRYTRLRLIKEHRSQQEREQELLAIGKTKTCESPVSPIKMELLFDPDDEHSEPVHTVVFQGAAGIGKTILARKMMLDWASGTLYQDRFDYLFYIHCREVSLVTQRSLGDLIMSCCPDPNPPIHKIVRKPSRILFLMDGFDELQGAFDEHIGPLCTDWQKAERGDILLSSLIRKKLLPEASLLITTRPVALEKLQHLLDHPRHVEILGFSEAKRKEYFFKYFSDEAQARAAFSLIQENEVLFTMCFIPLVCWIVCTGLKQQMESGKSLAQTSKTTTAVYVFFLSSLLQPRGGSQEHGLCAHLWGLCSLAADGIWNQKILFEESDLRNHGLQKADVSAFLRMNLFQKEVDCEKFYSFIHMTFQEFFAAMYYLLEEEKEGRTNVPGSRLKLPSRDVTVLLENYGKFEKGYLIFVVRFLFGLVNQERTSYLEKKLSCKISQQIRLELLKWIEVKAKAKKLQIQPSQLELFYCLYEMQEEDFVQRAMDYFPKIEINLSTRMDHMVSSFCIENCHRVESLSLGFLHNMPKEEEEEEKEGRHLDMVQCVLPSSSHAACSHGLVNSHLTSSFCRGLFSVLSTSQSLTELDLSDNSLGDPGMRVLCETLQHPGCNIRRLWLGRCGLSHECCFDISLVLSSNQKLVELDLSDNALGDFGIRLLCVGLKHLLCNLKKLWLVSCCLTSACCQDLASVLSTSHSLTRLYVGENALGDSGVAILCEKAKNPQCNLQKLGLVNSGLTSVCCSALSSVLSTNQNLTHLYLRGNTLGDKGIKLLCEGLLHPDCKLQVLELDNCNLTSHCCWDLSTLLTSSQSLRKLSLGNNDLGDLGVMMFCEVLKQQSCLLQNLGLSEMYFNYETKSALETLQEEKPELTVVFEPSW

B1: ATG9A (human) (other, UniProt Q7Z3C6 1-839, looked up)
chain: MAQFDTEYQRLEASYSDSPPGEEDLLVHVAEGSKSPWHHIENLDLFFSRVYNLHQKNGFTCMLIGEIFELMQFLFVVAFTTFLVSCVDYDILFANKMVNHSLHPTEPVKVTLPDAFLPAQVCSARIQENGSLITILVIAGVFWIHRLIKFIYNICCYWEIHSFYLHALRIPMSALPYCTWQEVQARIVQTQKEHQICIHKRELTELDIYHRILRFQNYMVALVNKSLLPLRFRLPGLGEAVFFTRGLKYNFELILFWGPGSLFLNEWSLKAEYKRGGQRLELAQRLSNRILWIGIANFLLCPLILIWQILYAFFSYAEVLKREPGALGARCWSLYGRCYLRHFNELEHELQSRLNRGYKPASKYMNCFLSPLLTLLAKNGAFFAGSILAVLIALTIYDEDVLAVEHVLTTVTLLGVTVTVCRSFIPDQHMVFCPEQLLRVILAHIHYMPDHWQGNAHRSQTRDEFAQLFQYKAVFILEELLSPIVTPLILIFCLRPRALEIIDFFRNFTVEVVGVGDTCSFAQMDVRQHGHPQWLSAGQTEASVYQQAEDGKTELSLMHFAITNPGWQPPRESTAFLGFLKEQVQRDGAAASLAQGGLLPENALFTSIQSLQSESEPLSLIANVVAGSSCRGPPLPRDLQGSRHRAEVASALRSFSPLQPGQAPTGRAHSTMTGSGVDARTASSGSSVWEGQLQSLVLSEYASTEMSLHALYMHQLHKQQAQAEPERHVWHRRESDESGESAPDEGGEGARAPQSIPRSASYPCAAPRPGAPETTALHGGFQRRYGGITDPGTVPRVPSHFSRLPLGGWAEDGQSASRHPEPVPEEGSEDELPPQVHKV
notes: Transmembrane protein; co-IP from RIPA lysates; Tagged and endogenous human forms kept under one id; also called Flag-ATG9A; HA-ATG9A
B1: binds (ULK1).

B2: RAB8A (other, human, UniProt P61006 1-207, looked up)
chain: MAKTYDYLFKLLLIGDSGVGKTCVLFRFSEDAFNSTFISTIGIDFKIRTIELDGKRIKLQIWDTAGQERFRTITTAYYRGAMGIMLVYDITNEKSFDNIRNWIRNIEEHASADVEKMILGNKCDVNDKRQVSKERGEKLALDYGIKFMETSAKANINVENAFFTLARDIKAKMDKKLEGNSPQGSNQGVKITPDQQKRSSFFRCVLL
B2: binds [1].

B3: VAMP8 (other, human, UniProt Q9BV40 1-100, looked up)
chain: MEEASEGGGNDRVRNLQSEVEGVKNIMTQNVERILARGENLEHLRNKTEDLEATSEHFKTTSQKVARKFWWKNVKMIVLICVIVFIIILFIVLFATGAFS
B3: binds [1].

B4: STX6 (other, human, UniProt O43752 1-255, looked up)
chain: MSMEDPFFVVKGEVQKAVNTAQGLFQRWTELLQDPSTATREEIDWTTNELRNNLRSIEWDLEDLDETISIVEANPRKFNLDATELSIRKAFITSTRQVVRDMKDQMSTSSVQALAERKNRQALLGDSGSQNWSTGTTDKYGRLDRELQRANSHFIEEQQAQQQLIVEQQDEQLELVSGSIGVLKNMSQRIGGELEEQAVMLEDFSHELESTQSRLDNVMKKLAKVSHMTSDRRQWCAIAILFAVLLVVLILFLVL
notes: also called syntaxin 6
B4: binds [1].

B5: STX7 (other, human, UniProt O15400 1-261, looked up)
chain: MSYTPGVGGDPAQLAQRISSNIQKITQCSVEIQRTLNQLGTPQDSPELRQQLQQKQQYTNQLAKETDKYIKEFGSLPTTPSEQRQRKIQKDRLVAEFTTSLTNFQKVQRQAAEREKEFVARVRASSRVSGSFPEDSSKERNLVSWESQTQPQVQVQDEEITEDDLRLIHERESSIRQLEADIMDINEIFKDLGMMIHEQGDVIDSIEANVENAEVHVQQANQQLSRAADYQRKSRKTLCIIILILVIGVAIISLIIWGLNH
B5: binds [1].

B6: STX8 (other, human, UniProt Q9UNK0 1-236, looked up)
chain: MAPDPWFSTYDSTCQIAQEIAEKIQQRNQYERKGEKAPKLTVTIRALLQNLKEKIALLKDLLLRAVSTHQITQLEGDRRQNLLDDLVTRERLLLASFKNEGAEPDLIRSSLMSEEAKRGAPNPWLFEEPEETRGLGFDEIRQQQQKIIQEQDAGLDALSSIISRQKQMGQEIGNELDEQNEIIDDLANLVENTDEKLRNETRRVNMVDRKSASCGMIMVILLLLVAIVVVAVWPTN
B6: binds [1].

B7: VAMP7 (other, human, UniProt P51809 1-220, looked up)
chain: MAILFAVVARGTTILAKHAWCGGNFLEVTEQILAKIPSENNKLTYSHGNYLFHYICQDRIVYLCITDDDFERSRAFNFLNEIKKRFQTTYGSRAQTALPYAMNSEFSSVLAAQLKHHSENKGLDKVMETQAQVDELKGIMVRNIDLVAQRGERLELLIDKTENLVDSSVTFKTTSRNLARAMCMKNLKLTIIIIIVSIVFIYIIVSPLCGGFTWPSCVKK
B7: binds [2].

B8: Beclin 2/ECD (ECD domain alone) (other)
chain: INCFTATFEIWVEGPLGVINNFRLGRLPTVRVGWNEINTAWGQAALLLLTLANTIGLQFQRYRLIPCGNHSYLKSLTDDRTELPLFCYGGQDVFLNNKYDRAMVAFLDCMQQFKEEAEKGELGLSLPYGIQVETGLMEDVGGRGECYSIRTHLNTQELWTKALKFMLINFKWSLIWVASRYQK
notes: HA-tagged truncation
B8: no binding [3]; no binding [4].

B9: Beclin 2/ΔECD (ECD domain deletion fragment, residues 1-248) (other)
chain: MSSIRFLCQRCHQALKLSGSSESRSLPAAPAPTSGQAEPGDTREPGVTTREVTDAEEQQDGASSRSPPGDGSVSKGHANIFTLLGELGAMHMLSSIQKAAGDIFDIVSGQAVVDHPLCEECTDSLLEQLDIQLALTEADSQNYQRCLETGELATSEDEAAALRAELRDLELEEARLVQELEDVDRNNARAAADLQAAQAEAAELDQQERQHYRDYSALKRQQLELLDQLGNVENQLQYARVQRDRLKE
notes: HA-tagged truncation; also called Beclin 2/AECD
B9: no binding [3]; no binding [4].
